Test results published in publication PMC6459835, “The RNA binding activity of the first identified trypanosome protein with Z-DNA-binding domains”.

Legend:
Test in all cases: EMSA
Conditions in all cases: RBB50: 20 mM Tris-HCl pH 7.6, 50 mM KCl, 5 mM MgCl2, 100 mg/mL BSA (so in the source), 10% glycerol, 1 mM DTT, plus 100 mM KCl and 20 U RNasin; 20 ul, 30 min, RT …
[1] = system: RBP7910 P164A (Trypanosoma brucei)
[2] = system: RBP7910 T52A (Trypanosoma brucei)
[3] = system: RBP7910 W79A (Trypanosoma brucei)
[4] = system: RBP7910 W188A (Trypanosoma brucei)
[5] = system: RBP7910 W56A (Trypanosoma brucei)
[6] = system: RBP7910 F167A (Trypanosoma brucei)
[7] = system: RBP7910 P76A (Trypanosoma brucei)
[8] = system: RBP7910 P77A (Trypanosoma brucei)
[9] = system: RBP7910 R53A (Trypanosoma brucei)

Substance gA6[14] (delta16G) gRNA with U-tail has a Kd [1] of 0.27 nM, a Kd [2] of 0.61 nM and a Kd [3] of 0.32 nM. It also gave a Kd [4] of 0.55 nM, a Kd [5] of 0.37 nM and a Kd [6] of 0.3 nM. The Kd [7] was 0.18 nM, the Kd [8] was 0.3 nM and the Kd [9] was 0.81 nM.
